Data reported in publication PMC3783171, “Sulfolobus chromatin proteins modulate strand displacement by DNA polymerase B1”.

Legend:
Sso7d = molecular target: T1, Sso7d (Sulfolobus solfataricus, UniProt P39476 1-64); assay: EMSA; apparent Kd; 4 mM Mg2+, 25 C; EMSA: 50 mM Tris-HCl pH 8.0, 2 mM beta-mercaptoethanol, 0.1 mg/ml BSA, 4 mM MgCl2, 5% glycerol, 2 nM probe, 10 min at 25 C (room temperature), 5% PAGE in 0.1x TBE; Tm: 10 mM potassium phosphate pH 7.0, 20-90 C; details: protein: recombinant, blunt
T1 sequence: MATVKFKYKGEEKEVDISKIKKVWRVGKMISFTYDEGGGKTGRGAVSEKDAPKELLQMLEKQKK

Cren7 [1] = molecular target: T2, Cren7 (Sulfolobus solfataricus, UniProt Q97ZE3 1-60); assay: EMSA; 4 mM Mg2+, 25 C; EMSA: 50 mM Tris-HCl pH 8.0, 2 mM beta-mercaptoethanol, 0.1 mg/ml BSA, 4 mM MgCl2, 5% glycerol, 2 nM probe, 10 min at 25 C (room temperature), 5% PAGE in 0.1x TBE; Tm: 10 mM potassium phosphate pH 7.0, 20-90 C; details: protein: recombinant; label: 32P on D30; blunt
T2 sequence: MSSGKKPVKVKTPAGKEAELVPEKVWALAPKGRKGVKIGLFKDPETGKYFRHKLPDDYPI

Cren7 [2] = molecular target: T2, Cren7; assay: thermal denaturation (A260); EMSA: 50 mM Tris-HCl pH 8.0, 2 mM beta-mercaptoethanol, 0.1 mg/ml BSA, 4 mM MgCl2, 5% glycerol, 2 nM probe, 10 min at 25 C (room temperature), 5% PAGE in 0.1x TBE; Tm: 10 mM potassium phosphate pH 7.0, 20-90 C; details: protein: recombinant; blunt

B1: 30-bp RNA:DNA hybrid (R30/Com30) (DNA:RNA)
RNA: UGCUUCCUUCAAUGUGCUGGGAUCCUACAA
DNA: TTGTAGGATCCCAGCACATTGAAGGAAGCA
modifications: R30 strand is RNA
Kd (Sso7d; label: 32P on R30): 500 nM

B2: 30-bp dsDNA (D30/Com30) (dsDNA)
DNA 1: TGCTTCCTTCAATGTGCTGGGATCCTACAA
DNA 2: TTGTAGGATCCCAGCACATTGAAGGAAGCA
binding result (Cren7 [1]): binds
Kd (Sso7d; label: 32P on D30): 150 nM

B3: 15-bp dsDNA (D15/Com15) (dsDNA)
DNA 1: TGCATCCTTCAAGAC
DNA 2: GTCTTGAAGGATGCA
binding result (Cren7 [2]): binds
